Legend:
[1] = target: T1, rat IL-23R extracellular domain (ECD) protein (rat); assay: SPR Biacore 8K, supernatant
T1 construct: also called rat IL-23R ECD; F1LX96 amino acids 24-354
T1 chain: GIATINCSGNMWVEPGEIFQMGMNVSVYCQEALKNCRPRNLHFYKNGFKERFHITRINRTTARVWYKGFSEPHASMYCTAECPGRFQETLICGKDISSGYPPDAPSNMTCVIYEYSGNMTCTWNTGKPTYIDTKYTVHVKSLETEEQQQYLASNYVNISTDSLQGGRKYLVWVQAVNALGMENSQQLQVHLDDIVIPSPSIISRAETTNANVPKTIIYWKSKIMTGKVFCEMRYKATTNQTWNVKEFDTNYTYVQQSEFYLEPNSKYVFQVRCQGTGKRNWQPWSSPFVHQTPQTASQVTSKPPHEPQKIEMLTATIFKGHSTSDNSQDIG
Summary of the method: (§1)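 Antibodies (~150 RU) were captured and human or rat IL-23R ECD injected at 0.8–500 nM in 5-fold steps, at 25 °C in HBS-P+ with 100 μg/ml BSA. Association ran 3 min at 50 μL/min, followed by 30 min dissociation. Ka, Kd and KD came from a Langmuir 1:1 fit.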

[2] = target: T2, Recombinant human IL-23 receptor (IL-23R) extracellular domain (ECD) protein (human, UniProt Q5VWK5 24-355); assay: SPR ProteOn, purified
T2 construct: also called human IL-23R ECD; hu IL-23R ECD
T2 sequence: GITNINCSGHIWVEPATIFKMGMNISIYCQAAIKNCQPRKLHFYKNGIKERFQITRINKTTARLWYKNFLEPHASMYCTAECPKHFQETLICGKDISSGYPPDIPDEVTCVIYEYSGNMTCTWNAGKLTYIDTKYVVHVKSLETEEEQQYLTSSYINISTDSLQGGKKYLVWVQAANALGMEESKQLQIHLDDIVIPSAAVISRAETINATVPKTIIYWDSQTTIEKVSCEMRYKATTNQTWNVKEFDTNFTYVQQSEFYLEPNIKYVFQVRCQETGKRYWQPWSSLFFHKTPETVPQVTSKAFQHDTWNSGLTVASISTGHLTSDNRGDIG
Method: Affinity by SPR using ProteOn. Affinity measurements using Surface Plasmon Resonance (SPR) were performed using a ProteOn XPR36 system (BioRad). […] Approximately 6000 RU (response units) of mAbs were immobilized. The kinetic experiments were performed at 25° C. in running buffer (DPBS+0.01% P20+100 μg/ml BSA). […] The association phase was monitored for 3 minutes at 50 μL/min, then followed by 10 minutes of buffer flow (dissociation phase). The chip surface was regenerated with two 18 second pulses of 100 mM H3PO4 (Sigma, Cat #7961) at 100 μL/min. The collected data were processed using ProteOn Manager software. First, the data was corrected for background using inter-spots. Then, double reference subtraction of the data was performed by using the buffer injection for analyte injections. The kinetic analysis of the data was performed using a Langmuir 1:1 binding model. The result for each mAb was reported in the format of Ka (On-rate), Kd (Off-rate) and KD (equilibrium dissociation constant).

[3] = target: T2, Recombinant human IL-23 receptor …; assay: SPR Biacore 8K, purified, analysis 1
Method: (§2) Affinity by SPR using Biacore 8K. Affinity measurements using Surface Plasmon Resonance (SPR) were performed using a Biacore 8K system (Cytiva). […] Approximately 9000-10000 RU (response units) of mAbs were immobilized. The kinetic experiments were performed at 25° C. in running buffer 1× of (HBS-P+ Buffer 10× (Cytiva #BR100671)+100 μg/ml BSA). To perform kinetic experiments, approximately 150 RU of mAbs were captured followed by injections of human IL-23R or rat IL-23R at concentrations ranging from 0.8 nM to 500 nM (in a 5-fold serial dilution). The association phase was monitored for 3 minutes at 50 μL/min, then followed by 30 minutes of buffer flow (dissociation phase). […] The collected data were processed using Biacore insight Evaluation software (Version 3.0.12.15655). The kinetic analysis of the data was performed using a Langmuir 1:1 binding model. The result for each mAb was reported in the format of Ka (On-rate), Kd (Off-rate) and KD (equilibrium dissociation constant).

[4] = target: T2, Recombinant human IL-23 receptor …; assay: SPR Biacore 8K, supernatant, analysis 2
Summary of the method: as §1

[5] = target: T2, Recombinant human IL-23 receptor …; assay: SPR Biacore 8K, purified, analysis 2
Method: as §2

Binder	binding result [1]	Kd [2] [nM]	koff [2] [s⁻¹]	kon [2] [M⁻¹ s⁻¹]	Kd [3] [nM]	koff [3] [s⁻¹]	kon [3] [M⁻¹ s⁻¹]	Kd [4] [nM]	koff [4] [s⁻¹]	kon [4] [M⁻¹ s⁻¹]	Kd [5] [nM]	koff [5] [s⁻¹]	kon [5] [M⁻¹ s⁻¹]	binding result [2]
I23RB4 (antibody, mouse IgG2a, kappa, V domains shown, phage display; human V regions, mouse IgG2a/kappa constant regions) VH: QVQLVQSGAEVKKPGSSVKVSCKASGGTFKTYAIHWVRQAPGQGLEWMGWIIPIFGTANYAQKFQGRVTITADESTSTAYMELSSLRSEDTAVYYCARDGGYYGSRYYPRSYYFDYWGQGTLVTVSS VL: EIVLTQSPATLSLSPGERATLSCRASQSVSSYLAWYQQKPGQAPRLLIYDASNRATGIPARFSGSGSGTDFTLTISSLEPEDFAVYYCQQRSNWPLTFGQGTKVEIKR	no binding (tested: 500 nM)	0.151	0.000235	1.56e+06	0.588	0.000135	230000	0.477	0.000121	254000	–	–	–	–
I23RB92 (antibody, mouse IgG2a, kappa, V domains shown, mouse immunization; mouse IgG2a/kappa) VH: EVQLQQSGPEVVKPGASVKISCKASGYTFTDHTMDWVKQSHGKNLEWIGYIYPKSGGTGYNQKFKNKATLTVDKSSSTAYMEFHSLTSDDSAVYYCARWGLRRDGFVYWGQGTLVTVSA VL: DIKMTQSPASLAVSLGQRATISCRASQSVSTSKYDYIHWYQQKSGQPPRLLIKYASNLESGVPARFSGSGSGTDFTLNIHPVEEEDTATYYCQHTWEIPYTFGSGTKLELKR	no binding (tested: 500 nM)	–	–	–	< 0.109	< 2.89e-05	265000	< 0.124	< 2.89e-05	233000	< 0.12	< 2.89e-05	240000	–
I23RB76 (antibody, mouse IgG2a, kappa, V domains shown, mouse immunization; mouse IgG2a/kappa) VH: EVQLQQSGPELVKPGASVKMSCKASGYTFTDYYMNWMKQSHGKSLEWIGYISPKNGRTGYNQKFKGKATLTVDKSSTTAYMELRSLTSEDSAVYYCAKSNGYYALDYWGQGTTVTVSS VL: DIVLTQSPATLCVTPGETVSLSCRASQNIYKNLHWFQQKSHRSPRLLIKYASDSISGIPSRFTGSGSGTDYTLSINSVKPEDEGIYYCLQGYSTPWTFGGGTKLEIKR	no binding (tested: 500 nM)	–	–	–	0.0891	5.62e-05	631000	0.0805	3.9e-05	484000	0.0859	4.14e-05	482000	–
I23RB3 (antibody, mouse IgG2a, kappa, V domains shown, phage display; human V regions, mouse IgG2a/kappa constant regions) VH: QVQLVQSGAEVKKPGSSVKVSCKASGGTFKSYSIHWVRQAPGQGLEWMGGIIPYFGYANYAQKFQGRVTITADESTSTAYMELSSLRSEDTAVYYCARERGYYGSIYYGGGFDYWGQGTLVTVSS VL: EIVLTQSPATLSLSPGERATLSCRASQSVSSYLAWYQQKPGQAPRLLIYDASNRATGIPARFSGSGSGTDFTLTISSLEPEDFAVYYCQQRSNWPLTFGQGTKVEIKR	no binding (tested: 500 nM)	1.92	0.000335	174000	4.76	0.000255	53600	3.99	0.000233	58300	–	–	–	–
I23RB2 (antibody, mouse IgG2a, kappa, V domains shown, phage display; human V regions, mouse IgG2a/kappa constant regions) VH: QVQLVQSGAEVKKPGSSVKVSCKASGGTFSSYAISWVRQAPGQGLEWMGGIIPIFGTANYAQKFQGRVTITADESTSTAYMELSSLRSEDTAVYYCARDRYRYLGANGFDYWGQGTLVTVSS VL: EIVLTQSPATLSLSPGERATLSCRASQSVSSYLAWYQQKPGQAPRLLIYDASNRATGIPARFSGSGSGTDFTLTISSLEPEDFAVYYCQQRSNWPLTFGQGTKVEIKR	–	> 4000	–	–	–	–	–	–	–	–	–	–	–	–
I23RB6 (antibody, mouse IgG2a, kappa, V domains shown, phage display; human V regions, mouse IgG2a/kappa constant regions) VH: QVQLVQSGAEVKKPGSSVKVSCKASGGTFSSYAISWVRQAPGQGLEWMGGIIPIFGTANYAQKFQGRVTITADESTSTAYMELSSLRSEDTAVYYCARGRYIRSYDYFDYWGQGTLVTVSS VL: not shown	–	–	–	–	–	–	–	–	–	–	–	–	–	no binding
I23RB9 (antibody, mouse IgG2a, kappa, V domains shown, phage display; human V regions, mouse IgG2a/kappa constant regions) VH: QVQLVQSGAEVKKPGSSVKVSCKASGGTFSSYAISWVRQAPGQGLEWMGGIIPIFGTANYAQKFQGRVTITADESTSTAYMELSSLRSEDTAVYYCARDRSYSYGLSGLGYYGFDYWGQGTLVTVSS VL: EIVLTQSPATLSLSPGERATLSCRASQSVSSYLAWYQQKPGQAPRLLIYDASNRATGIPARFSGSGSGTDFTLTISSLEPEDFAVYYCQQRSNWPLTFGQGTKVEIKR	–	–	–	–	–	–	–	–	–	–	–	–	–	no binding

Reference: US20250179196A1 (Janssen / Centocor, published 2025)
